Experimental data reported in PMC3974781.

Target: HA-ASIC2a (mouse acid-sensing ion channel 2a, HA epitope-tagged) (mouse) (UniProt Q925H0)
UniProt Q925H0, sequence (Q925H0 whole entry): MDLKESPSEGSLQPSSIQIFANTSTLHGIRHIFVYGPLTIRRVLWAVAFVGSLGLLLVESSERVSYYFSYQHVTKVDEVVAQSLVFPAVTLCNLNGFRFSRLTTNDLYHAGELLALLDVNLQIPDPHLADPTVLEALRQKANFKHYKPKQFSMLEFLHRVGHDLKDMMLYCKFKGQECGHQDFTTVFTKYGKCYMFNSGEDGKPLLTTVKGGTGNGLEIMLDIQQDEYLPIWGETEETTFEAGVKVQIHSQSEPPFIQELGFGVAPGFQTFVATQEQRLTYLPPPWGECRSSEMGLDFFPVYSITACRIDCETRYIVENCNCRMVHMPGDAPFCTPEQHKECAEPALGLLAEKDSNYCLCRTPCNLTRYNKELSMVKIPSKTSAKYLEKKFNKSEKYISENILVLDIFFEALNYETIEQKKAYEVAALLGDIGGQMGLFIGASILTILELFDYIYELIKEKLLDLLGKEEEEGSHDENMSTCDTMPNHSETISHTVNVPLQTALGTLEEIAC

- pH50 of activation of acid-evoked currents in CHO cells coexpressing ASIC1a and ASIC2a (whole-cell patch clamp); ASIC1a alone pH50 = 6.7, ASIC2a alone pH50 = 4.0: 5.4 pH
B1: ASIC1a (mouse acid-sensing ion channel 1a) (natural protein)
chain: MELKTEEEEVGGVQPVSIQAFASSSTLHGLAHIFSYERLSLKRALWALCFLGSLAVLLCVCTERVQYYFCYHHVTKLDEVAASQLTFPAVTLCNLNEFRFSQVSKNDLYHAGELLALLNNRYEIPDTQMADEKQLEILQDKANFRSFKPKPFNMREFYDRAGHDIRDMLLSCHFRGEACSAEDFKVVFTRYGKCYTFNSGQDGRPRLKTMKGGTGNGLEIMLDIQQDEYLPVWGETDETSFEAGIKVQIHSQDEPPFIDQLGFGVAPGFQTFVSCQEQRLIYLPSPWGTCNAVTMDSDFFDSYSITACRIDCETRYLVENCNCRMVHMPGDAPYCTPEQYKECADPALDFLVEKDQEYCVCEMPCNLTRYGKELSMVKIPSKASAKYLAKKFNKSEQYIGENILVLDIFFEVLNYETIEQKKAYEIAGLLGDIGGQMGLFIGASILTVLELFDYAYEVIKHRLCRRGKCQKEAKRNSADKGVALSLDDVKRHNPCESLRGHPAGMTYAANILPHHPARGTFEDFTC
